Experiments:
[1] = molecular target: T1, HCB, receptor-binding domain of BoNT/B1 (E859–E1291) (UniProt P10844); assay: crystal structure
[2] = molecular target: T1, HCB, receptor-binding domain of BoNT/B1 …; assay: SEC
[3] = molecular target: T2, HCB, recombinant BoNT preparation coated for ELISA (Clostridium botulinum, BoNT/B subtype B1); assay: ELISA
T2 chain: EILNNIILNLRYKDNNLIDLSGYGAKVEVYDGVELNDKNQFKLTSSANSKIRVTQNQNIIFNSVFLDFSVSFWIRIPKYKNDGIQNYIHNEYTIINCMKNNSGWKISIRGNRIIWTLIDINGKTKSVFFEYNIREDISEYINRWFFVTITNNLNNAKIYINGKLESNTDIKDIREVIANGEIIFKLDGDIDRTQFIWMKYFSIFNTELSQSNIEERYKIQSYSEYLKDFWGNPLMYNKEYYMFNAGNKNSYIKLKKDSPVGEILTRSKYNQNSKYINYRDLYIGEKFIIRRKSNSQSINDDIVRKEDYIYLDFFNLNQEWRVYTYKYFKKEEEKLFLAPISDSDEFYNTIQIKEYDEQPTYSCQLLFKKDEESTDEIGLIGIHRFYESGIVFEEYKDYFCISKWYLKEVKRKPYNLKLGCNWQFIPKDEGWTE

B1: VHH JLI-G10 (VHH)
VHH: QVQLVESGGGLVQAGGSLRLSCAASILTYDLDYYYIGWVRQAPGKEREGVSCISSTDGATYYADSVKGRFTISRNNAKNTVYLQMNNLKPEDTAIYYCAAAPLAGRYCPASHEYGYWGQGTQVTVSS
binding result [1]: binds

B2: VHH JLK-G12 (from GST fusion) (VHH)
VHH: QVQLVESGGGLVQAGGSLRLSCAASEFRAEHFAVGWFRQAPGKEREGVSCVDASGDSTAYADSVKGRFTISRDNNKNVVYLQMDSLEPEDTGDYYCGASYFTVCAKSMRKIEYRYWGQGTQVTVSS
binding result [2]: binds

B3: VHH JLI-H11 (from GST fusion) (VHH)
VHH: QVQLVESGGGLVQPGESLRLSCGASGMSLDYYAIAWYRQAPGKEREGVSCISVSGSSAQYLDSVRGRFIISKDNTKSTAYLQMNSLKPEDTAVYYCAALADCAGYASLTFDFDSWGQGTQVAVSS
binding result [2]: binds

B4: VHH JLK-G12, His6-tagged thioredoxin fusion with carboxy-terminal E-tag (VHH)
VHH: B2 VHH
binding result [3]: binds

B5: VHH JLO-G11, His6-tagged thioredoxin fusion with carboxy-terminal E-tag (VHH)
VHH: QVQLAESGGGLVQPGGSLRLSCEASGFHLEHFAVGWFRQAPGKEREGVSCISASGDSTTYADSVKGRSTISKDNAKNAVYLQMDSLRPEDTGDYYCAASHFSVCGKNIRKIEYRYWGQGTPVTVSS
binding result [3]: binds

B6: VHH JLI-G10, His6-tagged thioredoxin fusion with carboxy-terminal E-tag (VHH)
VHH: B1 VHH
binding result [3]: binds

B7: VHH JLI-H11, His6-tagged thioredoxin fusion with carboxy-terminal E-tag (VHH)
VHH: B3 VHH
binding result [3]: binds

Reference: publication PMC7138525 (Cell reports, 2020)
